Read-outs that look alike come from different tables or passages of the source.
Key:
LGP2 RD wt [1] = target: T1, LGP2 RD wt (human, UniProt Q96C10 537-678); test: competition
T1 sequence: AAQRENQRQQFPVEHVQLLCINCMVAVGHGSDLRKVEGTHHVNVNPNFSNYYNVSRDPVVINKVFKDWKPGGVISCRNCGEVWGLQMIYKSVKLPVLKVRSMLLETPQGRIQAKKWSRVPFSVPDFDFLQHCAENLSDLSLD

LGP2 RD wt [2] = target: T1, LGP2 RD wt; test: fluorescence anisotropy
LGP2 RD P606K = target: T2, LGP2 RD P606K (human, UniProt Q96C10 537-678, P606K); test: fluorescence anisotropy
T2 sequence: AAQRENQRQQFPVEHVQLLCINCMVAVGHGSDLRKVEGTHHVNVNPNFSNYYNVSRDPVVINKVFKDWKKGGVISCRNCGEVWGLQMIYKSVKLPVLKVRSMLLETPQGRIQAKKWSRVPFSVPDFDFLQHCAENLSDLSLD

LGP2 RD W604A = target: T3, LGP2 RD W604A (human, UniProt Q96C10 537-678, W604A); test: fluorescence anisotropy
T3 sequence: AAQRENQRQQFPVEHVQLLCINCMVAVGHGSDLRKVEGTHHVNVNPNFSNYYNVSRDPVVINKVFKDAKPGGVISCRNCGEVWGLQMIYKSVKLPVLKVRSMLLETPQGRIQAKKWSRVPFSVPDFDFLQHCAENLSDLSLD

LGP2 RD H576Y = target: T4, LGP2 RD H576Y (human, UniProt Q96C10 537-678, H576Y); test: fluorescence anisotropy
T4 sequence: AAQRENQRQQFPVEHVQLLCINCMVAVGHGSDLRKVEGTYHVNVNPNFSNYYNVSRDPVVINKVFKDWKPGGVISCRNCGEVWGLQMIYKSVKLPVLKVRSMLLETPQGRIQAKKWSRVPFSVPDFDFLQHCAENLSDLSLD

LGP2 RD L621A = target: T5, LGP2 RD L621A (human, UniProt Q96C10 537-678, L621A); test: fluorescence anisotropy
T5 sequence: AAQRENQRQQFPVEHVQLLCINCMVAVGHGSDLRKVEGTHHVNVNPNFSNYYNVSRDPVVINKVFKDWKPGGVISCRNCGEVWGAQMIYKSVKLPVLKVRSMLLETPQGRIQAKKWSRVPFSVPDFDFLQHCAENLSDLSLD

LGP2 RD K626E = target: T6, LGP2 RD K626E (human, UniProt Q96C10 537-678, K626E); test: fluorescence anisotropy
T6 sequence: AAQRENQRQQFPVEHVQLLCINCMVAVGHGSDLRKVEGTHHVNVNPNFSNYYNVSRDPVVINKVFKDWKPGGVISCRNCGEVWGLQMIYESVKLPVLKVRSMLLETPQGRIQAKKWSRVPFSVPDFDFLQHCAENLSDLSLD

LGP2 RD K605E = target: T7, LGP2 RD K605E (human, UniProt Q96C10 537-678, K605E); test: fluorescence anisotropy
T7 sequence: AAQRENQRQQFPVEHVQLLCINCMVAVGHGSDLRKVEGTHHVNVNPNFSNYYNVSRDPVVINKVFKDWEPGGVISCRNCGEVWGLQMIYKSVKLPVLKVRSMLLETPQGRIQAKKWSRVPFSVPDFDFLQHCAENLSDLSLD

LGP2 RD N583D = target: T8, LGP2 RD N583D (human, UniProt Q96C10 537-678, N583D); test: fluorescence anisotropy
T8 sequence: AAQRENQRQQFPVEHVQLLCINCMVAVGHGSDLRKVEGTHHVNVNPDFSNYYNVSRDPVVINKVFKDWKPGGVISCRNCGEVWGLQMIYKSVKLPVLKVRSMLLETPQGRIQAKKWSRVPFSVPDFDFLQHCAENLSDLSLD

LGP2 RD K634E = target: T9, LGP2 RD K634E (human, UniProt Q96C10 537-678, K634E); test: fluorescence anisotropy
T9 sequence: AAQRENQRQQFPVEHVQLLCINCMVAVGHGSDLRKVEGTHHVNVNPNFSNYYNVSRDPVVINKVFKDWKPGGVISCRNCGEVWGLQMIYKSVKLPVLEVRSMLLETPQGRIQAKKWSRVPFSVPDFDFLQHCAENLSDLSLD

LGP2 RD wt [3] = target: T1, LGP2 RD wt; test: competition; remark: listed apart in the source

B1: 5'PPP dsRNA 19 bp (dsRNA)
RNA 1: GCAUGCGACCUCUGUUUGA
RNA 2: UCAAACAGAGGUCGCAUGC
modifications: 5'-triphosphate on sense strand
- binding result (LGP2 RD wt [1]): binds

B2: 25 bp dsRNA (dsRNA)
RNA 1: GCUUGUCGGGAGCGCCACCCUCUGC
RNA 2: GCAGAGGGUGGCGCUCCCGACAAGC
- Kd (LGP2 RD wt [2]): 68 ± 6 nM
- Kd (LGP2 RD P606K): 230 ± 10 nM
- Kd (LGP2 RD W604A): 136 ± 6 nM
- Kd (LGP2 RD H576Y): 304 ± 10 nM
- Kd (LGP2 RD L621A): 165 ± 26 nM
- Kd (LGP2 RD K626E): 51 ± 5 nM
- Kd (LGP2 RD K605E): 140 ± 16 nM
- Kd (LGP2 RD N583D): 38 ± 4 nM
- binding result (LGP2 RD K634E): no binding

B3: 5'OH dsRNA 19 bp (dsRNA)
RNA 1: GCAUGCGACCUCUGUUUGA
RNA 2: UCAAACAGAGGUCGCAUGC
- binding result (LGP2 RD wt [3]): binds

Source: publication PMC2665237
